Laboratory results taken from patent US20180171024A1.
Where two headings read alike, the source gives them in different places.

Legend:
[1] = target: HLA-A2 on cells (tumor cell lines, normal primary cells, PBMCs) (human); assay: flow cytometry, astrocytes 1840, 10 µg/ml
[2] = target: HLA-A2/TyrD-S4 on T2 cells (human); assay: flow cytometry, T2 cells loaded with TyrD S4 [..], 10 µg/ml
[3] = target: HLA-A2/Tyrosinase369-377 complex on cells (human); assay: flow cytometry, T2 cells loaded with TYR peptide
[4] = target: HLA-A2 on cells (tumor cell lines, normal primary cells, PBMCs) (human); assay: flow cytometry, PBMCs #IB, 10 µg/ml
[5] = target: HLA-A2/DUSP5 on T2 cells (human); assay: flow cytometry, T2 cells loaded with DUSP5 peptide
[6] = target: HLA-A2 on other WT1 negative HLA-A2+ cells (other than 501, A498 and SKMEL; members not named); assay: flow cytometry on JVM-2 cells (WT1 mRNA -)
[7] = target: HLA-A2 on unloaded T2 cells (human); assay: flow cytometry, unloaded T2 cells, 10 µg/ml
[8] = target: HLA-A2/TyrD-S21 on T2 cells (human); assay: flow cytometry, T2 cells loaded with TyrD-S21 [..], 10 µg/ml
[9] = target: HLA-A2/WT1 126-134 complex on T2 cells (human); assay: flow cytometry, T2 cells loaded with WT1 1x10e-4M in DMSO
[10] = target: HLA-A2/KIAA0355 on T2 cells (human); assay: flow cytometry, T2 cells loaded with KIAA0335 [..], 10 µg/ml
[11] = target: HLA-A2/TyrD-S14 on T2 cells (human); assay: flow cytometry, T2 cells loaded with TyrD S14 [..], 10 µg/ml
[12] = target: HLA-A2/TyrD-S6 on T2 cells (human); assay: flow cytometry, T2 cells loaded with TyrD S6 [..], 10 µg/ml
[13] = target: HLA-A2 on cells (tumor cell lines, normal primary cells, PBMCs) (human); assay: flow cytometry, H522 cells, 10 µg/ml
[14] = target: HLA-A2 on cells (tumor cell lines, normal primary cells, PBMCs) (human); assay: flow cytometry, A375 melanoma cells, 10 µg/ml
[15] = target: HLA-A2 on cells (tumor cell lines, normal primary cells, PBMCs) (human); assay: flow cytometry, MEWO melanoma cells
[16] = target: HLA-A2 on cells (tumor cell lines, normal primary cells, PBMCs) (human); assay: flow cytometry, cardiac myocytes #6200-2, 10 µg/ml
[17] = target: HLA-A2 on cells (tumor cell lines, normal primary cells, PBMCs) (human); assay: flow cytometry, colonic smooth muscle cells #2940, 10 µg/ml
[18] = target: HLA-A2 on cells (tumor cell lines, normal primary cells, PBMCs) (human); assay: flow cytometry, PBMCs #YE, 10 µg/ml
[19] = target: HLA-A2/Tyrosinase369-377 complex on cells (human); assay: flow cytometry, T2 cells loaded with TyrD [..], 10 µg/ml
[20] = target: HLA-A2/TyrD-S13 on T2 cells (human); assay: flow cytometry, T2 cells loaded with TyrD S13 [..], 10 µg/ml
[21] = target: HLA-A2 on cells (tumor cell lines, normal primary cells, PBMCs) (human); assay: flow cytometry, 501A melanoma cells, 10 µg/ml
[22] = target: HLA-A2 on cells (tumor cell lines, normal primary cells, PBMCs) (human); assay: flow cytometry, Malme-3M melanoma cells, 10 µg/ml
[23] = target: HLA-A2 on cells (tumor cell lines, normal primary cells, PBMCs) (human); assay: flow cytometry, renal epithelial cells #4100-2, 10 µg/ml
[24] = target: HLA-A2/TyrD-S20 on T2 cells (human); assay: flow cytometry, T2 cells loaded with TyrD-S20 [..], 10 µg/ml
[25] = target: HLA-A2/Tyrosinase369-377 complex on cells (human); assay: flow cytometry, T2 cells loaded with 10^-4 M peptide
P68 … (Homo sapiens) = assay: as above
[26] = target: HLA-A2/TyrD-S3 on T2 cells (human); assay: flow cytometry, T2 cells loaded with TyrD S3 [..], 10 µg/ml
[27] = target: HLA-A2 on cells (tumor cell lines, normal primary cells, PBMCs) (human); assay: flow cytometry, ST486 cells, 10 µg/ml
[28] = target: HLA-A2/GPLD1 on T2 cells (human); assay: flow cytometry, T2 cells loaded with GPLD1 [..], 10 µg/ml
[29] = target: HLA-A2 on cells (tumor cell lines, normal primary cells, PBMCs) (human); assay: flow cytometry, H1703 cells, 10 µg/ml
[30] = target: HLA-A2/Gag on T2 cells (human); assay: flow cytometry, T2 cells loaded with GAG peptide
[31] = target: HLA-A2 on unloaded T2 cells (human); assay: flow cytometry, unloaded T2 cells, 10 µg/ml; remark: listed apart in the source
[32] = target: HLA-A2 on cells (tumor cell lines, normal primary cells, PBMCs) (human); assay: flow cytometry, Caco2 cells
[33] = target: HLA-A2 on cells (tumor cell lines, normal primary cells, PBMCs) (human); assay: flow cytometry, 501A melanoma cells
[34] = target: HLA-A2 on HLA-A2+/WT1+ SET2 cells (WT1 mRNA positive; WT1 126-134 peptide not detected by mass spectrometry of eluted HLA peptides); assay: flow cytometry on SET-2 cells (WT1 mRNA +)
[35] = target: HLA-A2/WT1 126-134 complex on T2 cells (human); assay: flow cytometry, T2 cells loaded with WT1 peptide 1x10e-4M
[36] = target: HLA-A2/TyrD-S2 on T2 cells (human); assay: flow cytometry, T2 cells loaded with TyrD S2 [..], 10 µg/ml
[37] = target: HLA-A2 on cells (tumor cell lines, normal primary cells, PBMCs) (human); assay: flow cytometry, A498 cells, 10 µg/ml
[38] = target: HLA-A2 on cells (tumor cell lines, normal primary cells, PBMCs) (human); assay: flow cytometry, 501A melanoma cells, 10 µg/ml; remark: listed apart in the source

In the case of BB7.2 (antibody), the MFI [1] is reported as 569, the MFI relative to background [2] is reported as 543 and the MFI [3] is reported as 2200. For the same substance, the MFI [4] was 552, the MFI [5] was 2470 and the MFI [6] was 238. It also gave an MFI relative to background [7] of 417, an MFI relative to background [8] of 654 and an MFI [9] of 722. For the same substance, the MFI relative to background [10] was 714, the MFI relative to background [11] was 565 and the MFI relative to background [12] was 516. For the same substance, the MFI [13] was 52.7, the MFI [14] was 196 and the MFI [15] was 76. For the same substance, the MFI [16] was 733, the MFI [17] was 744 and the MFI [18] was 366. For the same substance, the MFI relative to background [19] was 561, the MFI relative to background [20] was 749 and the MFI [21] was 243. For the same substance, the MFI [22] was 540, the MFI [23] was 1620 and the MFI relative to background [24] was 445. For the same substance, the MFI [25] was 471, the MFI (P68 … (Homo sapiens)) was 542 and the MFI relative to background [26] was 430. For the same substance, the MFI [27] was 681, the MFI relative to background [28] was 364 and the MFI [29] was 351. The MFI [30] was 1840, the MFI relative to background [31] was 286 and the GeoMean [32] was 123. The MFI [33] was 389, the MFI [34] was 890 and the MFI [35] was 722. For the same substance, the MFI relative to background [36] was 929, the MFI [37] was 170 and the MFI [38] was 760.
